The values below come from the nanobody polyreactivity screen of Harvey et al. (2022).

A short description of the data set: yeast display, Sf9 membrane polyspecificity reagent, FACS + sequencing; frameworks hold sequencing errors. In short, it runs like this:
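Nanobodies from a synthetic yeast display library (Saccharomyces cerevisiae BJ5465), induced 36–48 hours with galactose, were stained 1 hour at 4 °C with 10% biotinylated, detergent-solubilized Sf9 membrane reagent, enriched on streptavidin microbeads, then FACS-sorted. Anti-HA (expression) and streptavidin (reagent binding) fluorescence set low and high (top ~1%) gates. Polyreactivity labels come from the gate of origin. Genes were colony-PCR amplified, MiSeq 2 × 250 sequenced and filtered by CDR length.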
“QVQLVESGGGLVQAGGSLRLSCAASGFNFWRYAMGWYRQAPGKERELVASITSTGGSTYYADSVKGRFTISRDNAKNTVYLQMNSLKPEDTAVYYCAADTFVWADWSWHYYWGQGTQVTVSS”: the “polyreactivity (PSR sort gate)” value was “high polyreactivity”.

On to “QVQLVESGGGLVQAGGSLRLSCAASGFNFWRYAMGWYRQAPGKERELVAVITWSGTRTYYADSVKGRFTISRDNAKNTVYLQMNSLKPEDTAVYYCAALYYGFRLTYGYDYWGQGTQVTVSS”, for which the “polyreactivity (PSR sort gate)” value was “high polyreactivity”. To “QVQLVESGGGLVQAGGSLRLSCAASGFNIYNNAMAWYRQAPGKERELVAAITSNGGRTYYADSVKGRFTISRDNAKNTFYLQMNSLKPEDTAVYYCAVDLYVWNVHYYYWGQGTQVTVSS” belongs “high polyreactivity”; to “QVQLVESGGGLVQAGGSLRLSCAASGFNLRRNAMGWYRQAPGKERELVAAITSSGGRTTYADSVKGRFTISRDNAKNTVYLQMNSLKPEDTAVYYCAADFHVDYDYWGQGTQVTVSS”, “high polyreactivity”; to “QVQLVESGGGLVQAGGSLRLSCAASGFSFLAYAMGWYRQAPGKERELVAAINSSDGTTHYADSVKGRFTISRDNAKNTVYLQMNSLKPEDTAVYYCAVSQVRTGEGYHYWGQGTQVTVSS”, “low polyreactivity”. To “QVQLVESGGGLVQAGGSLRLSCAASGFSFWSNDMGWSRQAPGKEREFVAAITTSGGNTYYADSVKGRFTISRDNAKNTVYLQMQSLKPEDTAVYYCAAEEGSTDATGYDYWGEGTQVTVSS” belongs “low polyreactivity”. As for “QVQLVESGGGLVQAGGSLRLSCAASGFSVPLYTMGWYRQAPGKERELVAAISVTGGSTYYADSVKGRFTISRDNAQNTVYLPMNSLKPEDTAVYYCNAYLFFLNRVWSFDYWGQGTQVTVSS”, the entry is “low polyreactivity”; as for “QVQLVESGGGLVQAGGSLRLSCAASGFTCYIYAMGWYRQAPGKERELVAGITSGGTNYADSVKGRFTISRDNAKNTVYLQINSLKPEDTAVYYCATDYYDDVTIGYDYWGQGTQVTFSS”, “low polyreactivity”. For “QVQLVESGGGLVQAGGSLRLSCAASGFTFAFYTMGWYRQAPGKERELVAGITRSGTNTYYADSVKGRFTISRDNAKNTVYLQMNSLKPEDTAVYYCAAAIRPGMDYWGQGTQVTVSS”, the “polyreactivity (PSR sort gate)” value is given as “high polyreactivity”. As to “QVQLVESGGGLVQAGGSLRLSCAASGFTFAKYAMGWYRQAPGKERELVAAISSNGGTTYYADSVKGRFTISRDNAKNTDYLQMNSLKPEDTALYYCAAYTYRRPSTFTKVAFDYWGQGSQVTVSS”, the “polyreactivity (PSR sort gate)” value was “high polyreactivity”. As for “QVQLVESGGGLVQAGGSLRLSCAASGFTFALYAMGWYRQAPGKERELVAAITKGGGSTYYADSVKGRFTISRDNAKITVYLQMNSLKPEDTAVYYCAARGRYSAPDYGYWGQGTQVTVSS”, the entry is “high polyreactivity”.

As to “QVQLVESGGGLVQAGGSLRLSCAASGFTFARNAMGWYRQAPGKERELVAGITSRGSSTSYADSVKGRFTISRDNAKNTVYLQMNSLKPEDTAVYYCAAVPRYRDRGQYGYWGQGTQVTVSS”, the “polyreactivity (PSR sort gate)” value is “high polyreactivity”. To “QVQLVESGGGLVQAGGSLRLSCAASGFTFARYAMGWYRQAPGKERELVAAITSGSSTYYADSVKGRFTISRDNAKNTVYLQMNSLKPEDTAVYYCAARSFLQSYYYWGQGTQVTVSS” belongs “high polyreactivity”; to “QVQLVESGGGLVQAGGSLRLSCAASGFTFASNDMGWYIPAPGKERELVSAITKGGGRTYYADSVKGRFTISRDNAKNTVYLQMNSLKPEDTAVYYCAASHDKRRQYFVGQSAFDYWGQGTQVTVSS”, “low polyreactivity”. As for “QVQLVESGGGLVQAGGSLRLSCAASGFTFASYVMGWYRQAPGKERELVAAISYSGGYTYYADSVKGRFTISRDNAKNTVYLQMNSLKPEDTAVYYCNARYLQGYSGRYGYWGQGTQVTVSS”, the entry is “high polyreactivity”. To “QVQLVESGGGLVQAGGSLRLSCAASGFTFAVYAMGWYRQAPGKERELVAAISDSGGSTYYADSVKGRFTISRDNAKNTVYLQMNSLKPEDTAVYYCNRDWIVSGYYAYYEFDYWGQGTQVTVSS” belongs “low polyreactivity”.
